Target: T1, eIF3c/NIP1 (S. cerevisiae, UniProt P32497 1-812)
T1 construct: eIF3c/NIP1 subunit of yeast eIF3; 50 ug = 0.5 nmol (about 100 kDa) fits a whole protein (surmise); source: purified
Assay: ITC; VP-ITC; 100 uM a/TIF32^276-494 injected in 20 ul aliquots into the cell with 10 uM c/NIP1; 150 mM KCl, 10 mM Hepes pH 7.5, 5% glycerol
Conditions: both partners purified

T1 sequence (P32497 whole entry): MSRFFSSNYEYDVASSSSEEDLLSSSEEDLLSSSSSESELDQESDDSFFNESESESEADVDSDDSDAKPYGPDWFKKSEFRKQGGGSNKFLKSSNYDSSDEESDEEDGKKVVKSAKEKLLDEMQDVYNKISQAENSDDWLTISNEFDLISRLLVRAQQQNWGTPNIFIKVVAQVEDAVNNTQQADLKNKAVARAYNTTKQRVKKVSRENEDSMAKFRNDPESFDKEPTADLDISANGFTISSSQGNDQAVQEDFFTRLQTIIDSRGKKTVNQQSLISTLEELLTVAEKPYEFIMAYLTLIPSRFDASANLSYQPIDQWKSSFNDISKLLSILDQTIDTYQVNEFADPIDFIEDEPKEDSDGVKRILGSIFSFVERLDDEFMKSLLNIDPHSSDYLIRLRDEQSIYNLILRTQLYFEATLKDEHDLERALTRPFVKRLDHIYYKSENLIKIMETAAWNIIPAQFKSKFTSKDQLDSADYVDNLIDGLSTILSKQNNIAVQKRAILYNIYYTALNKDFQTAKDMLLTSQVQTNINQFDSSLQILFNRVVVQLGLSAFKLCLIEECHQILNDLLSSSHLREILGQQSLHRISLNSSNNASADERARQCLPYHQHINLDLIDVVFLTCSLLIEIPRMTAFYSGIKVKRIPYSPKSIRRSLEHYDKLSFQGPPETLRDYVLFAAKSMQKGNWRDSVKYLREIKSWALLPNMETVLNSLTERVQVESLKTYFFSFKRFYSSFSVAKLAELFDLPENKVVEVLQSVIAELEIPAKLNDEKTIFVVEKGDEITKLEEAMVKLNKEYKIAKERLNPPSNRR

Kd: 158 nM | dH: -10.2 kcal/mol | stoichiometry N: 0.944
B1: a/TIF32^276-494 (PCI domain of eIF3a/TIF32) (domain or fragment, S. cerevisiae, UniProt P38249 276-494, looked up)
chain: PSTLANYYENLVKVFFVSGDPLLHTTAWKKFYKLYSTNPRATEEEFKTYSSTIFLSAISTQLDEIPSIGYDPHLRMYRLLNLDAKPTRKEMLQSIIEDESIYGKVDEELKELYDIIEVNFDVDTVKQQLENLLVKLSSKTYFSQYIAPLRDVIMRRVFVAASQKFTTVSQSELYKLATLPAPLDLSAWDIEKSLLQAAVEDYVSITIDHESAKVTFAKD
notes: Detailed purification scheme is in Supplementary Methods; also called a/TIF32-PCI; a/TIF32 PCI domain
